One may read the stoichiometry N as a count of units in the complex or per binding partner.

Conditions in all cases: both partners purified
The target in assay [1] is Photosynthetic bacterial reaction center (BRC) from Rhodobacter sphaeroides, His-tagged (Rhodobacter sphaeroides, UniProt P0C0Y8 1-282; P0C0Y9 1-308; P0C0Y7 1-260). The experiment in a line: SDS-PAGE densitometry of gel-filtered peptidiscs; peptidiscs made on-column, one more gel filtration to remove free NSPr; 15% SDS-PAGE, Coomassie fluorescence of the NSPr band against a standard curve of NSPr; triplicate gels. On the technique in general: SEC sorts molecules by how far they enter the pores of the column.

For assay [2], the target named is T1, MalFGK2 ABC transporter (maltose transporter), His-tagged (UniProt P02916 1-514; P68183 1-296; P68187 1-371).
T1 construct: also called MalGFK2
The description is as above.

The target in assay [3] is T2, FhuA receptor, His-tagged (UniProt P06971 34-747).
T2 construct: also called FhuA transporter
T2 sequence (looked up): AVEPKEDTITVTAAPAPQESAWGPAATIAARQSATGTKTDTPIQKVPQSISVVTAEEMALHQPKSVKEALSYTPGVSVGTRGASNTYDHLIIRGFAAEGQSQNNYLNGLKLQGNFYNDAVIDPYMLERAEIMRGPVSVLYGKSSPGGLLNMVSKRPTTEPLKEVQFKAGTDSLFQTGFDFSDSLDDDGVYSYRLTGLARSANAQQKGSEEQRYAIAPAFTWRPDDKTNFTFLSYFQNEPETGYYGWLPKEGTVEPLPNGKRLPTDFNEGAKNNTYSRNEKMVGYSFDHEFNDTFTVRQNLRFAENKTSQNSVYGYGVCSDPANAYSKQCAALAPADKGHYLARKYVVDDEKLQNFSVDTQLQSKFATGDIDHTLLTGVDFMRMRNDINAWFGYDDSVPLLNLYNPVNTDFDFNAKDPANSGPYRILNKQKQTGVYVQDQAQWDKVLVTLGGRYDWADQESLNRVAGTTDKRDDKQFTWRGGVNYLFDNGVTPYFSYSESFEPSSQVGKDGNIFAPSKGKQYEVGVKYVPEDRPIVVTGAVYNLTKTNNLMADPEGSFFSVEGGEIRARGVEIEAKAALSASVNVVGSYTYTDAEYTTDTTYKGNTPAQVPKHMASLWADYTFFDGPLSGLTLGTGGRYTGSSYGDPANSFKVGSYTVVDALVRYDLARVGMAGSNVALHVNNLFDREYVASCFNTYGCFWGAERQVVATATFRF
The assay can be described thus: streptavidin blot quantification of biotinylated peptide in gel-filtered peptidiscs; FhuA reconstituted with NSPrbio; western blot with streptavidin-Alexa 680, against a standard curve. A general note: A western blot detects proteins with antibodies after separation by electrophoresis.

The next assay concerns the target T3, Colicin M, His-tagged (UniProt P05820 1-271).
T3 construct: colicin M; Construct as in Mills et al., 2014; also called ColM; source: E. coli BW25113, plasmid pMLD189, purified
T3 sequence: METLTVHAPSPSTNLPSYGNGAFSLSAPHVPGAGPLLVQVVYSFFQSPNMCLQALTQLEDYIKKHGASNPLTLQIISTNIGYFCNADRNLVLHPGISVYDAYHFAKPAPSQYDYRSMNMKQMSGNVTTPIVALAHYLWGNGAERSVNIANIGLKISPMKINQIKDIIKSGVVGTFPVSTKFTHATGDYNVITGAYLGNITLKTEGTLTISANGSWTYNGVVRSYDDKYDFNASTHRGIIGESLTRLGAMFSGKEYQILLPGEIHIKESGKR
The experiment in a line: native gel or EMSA; about 2 µg FhuA in peptidisc incubated with TonB23-329 (2 µg) or ColM (5 µg), with or without ferricrocin, 5 min at room temperature; CN-PAGE, Coomassie; free TonB and ColM do not migrate.

No end group written: not given here.

T1 sequence (P02916 whole entry, chain 1 of 3): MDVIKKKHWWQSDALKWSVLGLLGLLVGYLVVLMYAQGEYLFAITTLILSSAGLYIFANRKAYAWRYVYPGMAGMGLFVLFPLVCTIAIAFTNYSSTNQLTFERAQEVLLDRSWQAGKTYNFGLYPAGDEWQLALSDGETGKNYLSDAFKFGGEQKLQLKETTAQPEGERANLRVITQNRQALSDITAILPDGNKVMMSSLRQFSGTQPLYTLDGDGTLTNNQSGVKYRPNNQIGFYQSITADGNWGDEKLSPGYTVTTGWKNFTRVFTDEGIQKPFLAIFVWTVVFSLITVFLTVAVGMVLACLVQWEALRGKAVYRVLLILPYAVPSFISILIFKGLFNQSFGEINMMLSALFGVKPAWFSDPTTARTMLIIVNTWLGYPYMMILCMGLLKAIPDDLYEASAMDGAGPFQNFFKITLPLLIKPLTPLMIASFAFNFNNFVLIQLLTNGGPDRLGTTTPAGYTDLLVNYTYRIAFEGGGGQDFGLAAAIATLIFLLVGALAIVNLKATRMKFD
T1 sequence (P68183 whole entry, chain 2 of 3): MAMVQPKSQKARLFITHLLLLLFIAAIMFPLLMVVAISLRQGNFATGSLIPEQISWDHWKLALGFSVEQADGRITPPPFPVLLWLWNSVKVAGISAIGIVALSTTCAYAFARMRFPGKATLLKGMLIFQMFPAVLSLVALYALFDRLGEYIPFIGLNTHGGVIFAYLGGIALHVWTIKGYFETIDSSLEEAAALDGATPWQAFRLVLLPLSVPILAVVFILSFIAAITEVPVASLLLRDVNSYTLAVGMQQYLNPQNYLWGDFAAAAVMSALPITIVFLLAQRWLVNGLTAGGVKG
T1 sequence (P68187 whole entry, chain 3 of 3): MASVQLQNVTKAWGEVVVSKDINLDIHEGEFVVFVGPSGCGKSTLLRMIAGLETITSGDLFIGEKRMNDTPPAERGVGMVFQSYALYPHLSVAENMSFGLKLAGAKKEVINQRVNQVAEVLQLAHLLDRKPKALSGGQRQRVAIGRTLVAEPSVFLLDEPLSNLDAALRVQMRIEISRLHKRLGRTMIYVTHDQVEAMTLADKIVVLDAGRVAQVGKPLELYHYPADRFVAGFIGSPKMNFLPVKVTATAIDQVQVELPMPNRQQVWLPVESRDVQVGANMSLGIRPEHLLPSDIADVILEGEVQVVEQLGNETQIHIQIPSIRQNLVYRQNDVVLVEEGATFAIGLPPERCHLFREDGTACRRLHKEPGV

B1: Peptide NSPr (reversed nanodisc scaffold peptide, peptidisc scaffold) (peptide)
peptide: FAEKFKEAVKDYFAKFWDPAAEKLKEAVKDYFAKLWD
notes: also called NSP (used loosely in some legends and methods); source: synthetic peptide; bought: A+ peptide Co. Ltd. and Genscript (purity >80%)
Regarding B1, the figures for the “stoichiometry N” value in assay [1] and in assay [2] were 9 NSPr/disc and 10 NSPr/disc, respectively.

B2: Peptide NSPrbio (NSPr labelled with a biotin group) (peptide)
peptide: B1 peptide
modifications: also: biotin group, position not given here
notes: source: synthetic peptide; bought: KareBay
In the case of B2, the “stoichiometry N” value in assay [3] came out at 10 NSPr/disc.

B3: FhuA reconstituted in peptidisc (FhuA-NSPr) (complex)
chain: T2 sequence (looked up)
peptide: B1 peptide
notes: also called FhuA-peptidisc; FhuA peptidisc; copies: 1 + 10
Consider B3, for which, in the assay with Colicin M, His-tagged, the binding result is on record as “binds”.

The record behind these values is PMC6093710, “The Peptidisc, a simple method for stabilizing membrane proteins in detergent-free solution” (eLife, 2018).
